This data set can be described thus: protease stability score; higher = more stable; yeast display proteolysis, trypsin and chymotrypsin.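 Further: log10 excess protease needed over predicted unfolded state with 0 meaning unfolded.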

“DDREIKELLQLMLDAIRDGNEQSASKMADENARVKVGDKKVHGREQIQELVKELKKNVDHFTVNDIKQQGDKASADAEMDVNGVTVHMEVRVQVHNGHVKHAEMTYRDEDQKRQFHQ” yielded a protease stability score of -0.433.

As to “DDRELDHAKKVAERNDPDKLRKLADPNAHLTVGDKKIHGMHNAAQKVVSMWEQADHVDIKHVDQHNGRVRVEFRFVVNGREMEMVMRFEVKNGHIKRLQLEFTSEELQKKFDKLAD”, the protease stability score came out at 0.57.

In the case of “DDRELEDVQRVVETGDPDKLNDLADKDARMQVGDHKVRGSDQVRSLMDKLKKRIDHYDVKSITIRNGRLDATVVFVINGEEIEVRIVLRVHNGRLKEMSIHATSERVQTILKKAMS”, the protease stability score worked out at 0.803. Take “DDREMKKFAEQYARNLTRNDEDSLKDLFDENAEVTIGDKQVRGQEKIKSLLHQLHQQVDHFDLRRVDAQGDDIKIVVLWNHNGKHLNVTISMRVHNGRIKSATDHVRSEDDERKFKR”: the protease stability score came out at 0.569. The value for “DDREQAQKFMDLFEDAIKDGDPRQAEELAPPDAKARYGDKKLTGMHDIARHFIDEVKRVDHHRVTYKDIKNEGNKFVFTFVYTFKHNGQSDDKQVRVEAENHNGRLLVTSIHDT” was 0.724.

Take “DDRERAERYLRQVENALHTNDPRQLKNQADKDVKIEIGETDLHGTKDFVKMMKEIINRADHARFTVRSVRRHGDKMRVEFTAEVNHNGRRRTHTIRITLQLENGDVVLQSLRVE”: the protease stability score stood at 0.302. The sequence “DDREVDKVEELLKTGDFLKMANRADKNARMQIGDKEYRGREHVQDAAKRLDRQVDTEKVTDLRTDGEKVLVHYIQHFDGQNLEVDVEFHFHNGRLQEVVFHVRDPKKQKEFDKRVG” showed a protease stability score of -0.235. The sequence “DDREVVDRALKELRSILHEGDEEQMHRNFPPEASVKYGDTEYTGMESAAHLIIELRKRVDHMEQRVTTVNVRNGTVDVDMSADVRHNGREDSIKVKLILRISNGRAQLEQVINP” showed a protease stability score of 1.18.

For “DDRHEMKTALKQLIDAIRQGNPDTIMSLLDPNVTFTYGDQNIRGREHVNTELVHRRNRVDNVHVNLQDIDQDGEKLHARFQMVLRRNGRNDTRDMVLVAQVHNGKARIRRLHHG”, the protease stability score turned out to be 0.557. With “DDRHLHHRAREWAEQLKTNDEDELTKYVDPNARMRVGDKSVHGREKLQEQIHRDNERVDNVEIRSIRIENGTVNIRQVNDVNGRNDDFRVRMHIHNGQLKVNERHSP”, the protease stability score was -0.38. Sequence “DDRHLQQLASIAAKALRTGNPKDMKKLVDPNAKMHYGDKEVHGREQMADVLRRIRRDADHIDLRSYSADNGRISIDMDLRVNGKKVRIIVKAEVHNGKVTHVTVDTK” returned a protease stability score of 0.766.

In turn, “DDRHVQKRLKTFIHILRTGDPQKISNLVDPNAEIQVGDKEYHGRHEIRKLIEELKTRVDHIDVVDMKAEGDKARANLNVNVNGHDIRFVVQLVWDNGHVKSVRIKYRNERVERQEKG” returned a protease stability score of 1.61. As to “DDRIKELADRFMNALQTNDPDKINNLVDPNAKITVGDKSVRGDEQINRTMDQRKRELRQDYDVRSVEVHGNTAIIDVHVTFEHNGEPHKEKQTIIIHVKNGRAVDIKITRHS”, the protease stability score is -0.326. For “DDRIRQVVEEWWKAVETNDPDKAKENVDKDVRVEVGDKQFRGSETLEKRIRDEKDHARVVVRMQSVSVHGDTVDVTYNVVVEVNGNPLRFKAQAFFRARNGRMQSIQFSFSKEDKKRVDG”, the protease stability score was 0.916. With “DDRLNEMARRFITLLTTGDPKEAHKYMDENARFQIGDERYHGMHEFERLLTERQKTSRVQINSLEVQHEPNRANIHADVENERNGQPRRFDVIIELHAHNGRIKEITYEYRQ”, the protease stability score was -0.009.

Consider “DDRLREVFEHIVELFKTGNPEELSRNVDPNARYQYGDKELHGRDHYRREVKDLIDTMRYEQEVDKVQKRGEKVRIEAEARHKENGRPNEFTFVIEFKAHNGKVKHEVQHESS”, for which the protease stability score was -0.15. For “DDRNKHIFKKIIEAERTGDEDKLRQNFDPNARFRIGNQTYHGREHWADRVSDLRKKIRVEIKIKRVQVDGDKVVVKYQVVYNVNGRPKKDTFRVVLHFQNGKAKHRTFQIDEERKEHLDS”, the protease stability score turned out to be 0.252. “DDRNNHRAKTFLTALNHNDPDQMERMVDENAQVQVGDKSYRGREDMKRWLKELIDSIRLEVHVHSLTQHNGVAVADIEETRESNGDPEEDSFTLYIQVHNGQAKRLEESKKS” had a protease stability score of 0.552.

Take “DDRNQAEKQVDEMRKIAKTGDEDRMADLFIDNPRFNVGDETYHGREQVVKYFRDTFRQVDHMHITLRRLSVHNGRVKAEFDVTLNRNGRETKDIFVVIQVKHNGTLRIESVHQK”: the protease stability score was 0.781. On to “DDRQIEVLKDYIKAVQQNDPDRMRQNADPNATFNVGDKRYHGMTEYAEEVAKHLKEMRFEIRDIRLRDHNGKVHVEYEAEYEVNGQPFTQKVSFVAEVTNGHVKRVHYSTDEDLTRIEQK”, for which the protease stability score was -0.24.

On to “DDRQMDHFAHQFERNNPDEYRKMLDPNARAEYGDKDYSGREQVQTLADTLHKQFDHLEVKDYRFNNGRAEFRYEAKFNGKTLTMKMVAEVKNGHIKHVVFRVTDPRQRKDLQREFG”, for which the protease stability score was 0.156. Turning to “DDRQQRVMEKILTAVQKGDEKKVKDQMDPNVKVHVGEFHYQGEEQLEKTLRHRTKELEIEYREITFRVDNGNVHVDVKAQLNNNGKPQQFTQHFSAEVDGDRVKTVHVEVKQ”, the protease stability score was -0.533. Sequence “DDRQRRQFAERVQKVLRTGDPERFMQMADENVQVHVGDQTYRGRDQAEKNMREFVKRVDHLQIISFHFEGNHAVIVFIAHFDGKEATIEMVIRFSNGHIKEMKINPDQIRQMRS” displayed a protease stability score of 1.21. The value for “DDRQVEELVRIMQRGNFKDLASNLDENVHVKVGNRTYHGREKAETVFNRLQQRIDHYEIIHVQERPNRAQVRFRFRVNGRTVEATVKAQAHNGRIKEMNLQARDEDAQREIDHAID” was 1.24; that for “DDRQVERLAKEVVKNLETGNPNEFMKLMDPNAKFEVGDQDIHGREQWSEWVDHLSKHVDSLEVKSVTAHNGRVDIDMVFRVNGEKRVVKIVITVKNGHIKEMEIREQ” was 1.2. In turn, “DDRRLAQEMANQFRKIRETGNPDDIVQLADPNAKYRIGERDVHGKEEIKKDFQEEKDRVDRIEVEIDSIEVKNGEVRVTFILRRTHNGRRESRTLVMNARVDNGRLTMESATEK” yielded a protease stability score of -0.205. With “DDRTKMQELLDKLREAAEDGDRRKVHQLFDENARFEIGDTEFHGMTSAAKRLAEEWKRHDHVQFSVREIRVEPGRFVVHMQERNSHNGKSDSKNVVMTVTKSNGQIRATKVKVR”, the protease stability score is 0.387. In turn, “DDRTQKRLAEEVVRILNRGDEDQIRKMADKDVKARVGEQSVHGRETALRLLIEFNRRVDHVDIRHVHTEEGRVEVDLVAEVNGRRIRMHIVFILHNGKLHKVEMDPDELRKLEK” displayed a protease stability score of 0.868. Sequence “DDRVADLLRKWWEAVRTGDPDRAANQVDPNAKVEYGDKQVHGREQIRTELDERKRNAKFEYKIKTYNKDEDHVKVEAEAVVVINGRPHKFTYQVHARADGDKIKHMRIELPEDVLHEMQG” registered a protease stability score of 0.553. Sequence “DDRVLHEMVKVMETGDFEKFARLADPNATIEYGDKKIHGREDAEKFATKIKQRVDHVQIKTYSVKGDSARIHFELNVNGSRIDMVLVLQVKNGRLRRASFEFRDREDSKEFVKRVH” had a protease stability score of 0.068. On to “DDSAMRQIHDLLRHIETGNEKEVSKQMDPNARLQIGDQVYHGNEQARRAWKRERDEIRISIKRVRMDAKGDKVFIEMDLVREKDGTPDRLTMRITVQQHDGRVKDLVQEERR”, for which the protease stability score came out at 0.07. “DDSANERAKKVMHALKTGDPDTMSELLDPNATVDVGEKQVKGMDNIVDILRKERDQIRYSIDVKRMNAKGDKVVVDATRESHHNGQPRSWHFTIFFNNTNGRVKNLKVEESG” registered a protease stability score of 0.626. In the case of “DDSDVNQAQTIWKHWQQGNFREIAKNADPNVKINVGDKQYHGREEYESDMQEHRNQIRVKITSMSQNKNGDKAVVDAVIVNEENGEPEEKRFVWYIKAHNGRIVSFRVEDEK”, the protease stability score worked out at 0.176. Turning to “DDSEIRTLAKQLAHVIETGDHEHFRKMAPPDVRARIGETEYHGREQVAEALKQERRTADHVQVEDVKASGNNVTLIITQKENGRRDRFKMVFEFHNGKVKFVSQEKQ”, the protease stability score is -0.189. In the case of “DDSENRNFHQFVRDWTTGNPEKLAELADENARVNVGDKTVHGRDHIRTLFEKLIRRMDIELRDVKFQKSNGEISIKARMVLNENGRPKEFVMKNNAQAEGEKIKNFVLNDDS”, the protease stability score is 0.048. As for “DDSFVEKLQELLEDGNFERVADMADPNAQFRYGNRDLHGREELRKDAREFLSRVDHYQVDSFHVDNGQLNVTAQATFDGRDYKFTMTLRAKNGRVKSFKISFTSEQQNRQLDEKRE”, the figure is -0.004; as for “DDSKAEKFARDYVKNLHRGNQDQLARMVDPNVHFEYGDKQVHGREDYKQFNRRLRERVDHIQLKDFRIQGEKIRIEANFNVNGVNADIVFNFQIENGRVTRANMHFRSEDQEKQFHQ”, 0.161; as for “DDSKERSNLEKFAKALETGDPKKLQQQLDPDARMQIGDKTYHGRHDMEKWLEEFNRQADHYQIDTFDQHNGTLNIQMRMNINGNTVSMTVNVVAKNGRVKHVTFDPDVWRQLES”, 0.809. Turning to “DDSLEKELEDIMRTGNFEELVKNADKDARAQYGNRTYHGREDAKEAAHQFRKHVDSIQIDSIHRHNGHMEVDMQVNINGRNVRATMTIEAHNGRVKQFRVEVTDEEFHKTLHRLLE”, the protease stability score is 0.929. As to “DDSLLDKVKEIFSVMRTGDPDKMKKLADKHATFEVGDKQIHGREELSEIMRRRRDEQKVSVEVKRVKKQGDTANIVFTVTNNHNGTPKVETQTMTVNMSNGKITYVNVQNDK”, the protease stability score was -0.007. “DDSMVRLAHTVIDNWRQGDEKKAMELLDPNARAEIGDKTIHGREQMSDEIRKQRTEQRLDIKVKRLEDRPGHVVIDAENTNSKNGRPRTNRVQIHLTAQGDKLKRLRIQNDS” registered a protease stability score of -0.05. As for “DDSNNEIVKHMLEALHTGDPDQMSRLVDPNVRVNVGNKEVHGREQQREEVEKIKRDMRFEADLDDYHVHGEHLEFKVTYKAQINGKPYHFSADLNLTFHNGKLQSESARMDQHELEKLDG”, the figure is 0.029; as for “DDSQVRSALEQAKTGNFQNLRNQLDPNAHVRVGDKTLNGKEEAVSYMQEFRDQVDRIRVDSVTTQGEKAVADLTVVINGHRVRFELVVNIRNGRAREVELRSTSEEIKKHLEHLDS”, 0.481; as for “DDSREIEKFMTTVERALRRGDEHKLREMFPEDAHLEVGDKTYRGRENVVEANKEWANKFDHIHIRYDKLRVDNGKFDITITYVLKHNGRQETRRAKVVAHKTNGQVKMKSVFDT”, 0.482. As to “DDSRRATEFNKQYREVFRTGDPRKFEDYMDPNARAHYGDKELHGREQLRNYWKELTDNADHLDVQIHHLHVSGDDVNVDFQWNIDVNGENVQRKVVIIARLENGQVRAKQIVEK”, the protease stability score is -0.143. “DDSVKRLIKNLLKAWEHGDEHRARELMDEDARVTYGDQQVTGREEVARHHATRQKEIRYSIENMDVKVQGNHVEIHVEQQQTHNGEPKQFRYTMDVEARNGKIKRFEIQERR” gave a protease stability score of 0.187. Sequence “DDSVMTAVKELLTNIQSGDPDKIQRYLDPNARMQVGDKEIHGRENIAKEIHDQNNEMEVDIEVKHVEVTGDTAIVHADVQEFHNGRPDTFHLVVRAKQDNGKMTSVVFEKRK” yielded a protease stability score of -0.268.
